Measured values: patent US20180273635A1 (Zymeworks, published 2018)

Key:
Recombinant human HER2 [1] = biological target: T1, Recombinant human HER2 (human, UniProt P04626 23-652); experiment: SPR, variant captured on anti-human Fc, HER2 flowed, 25 C, pre-SEC;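 also: HER2 extracellular domain binding on Biacore T200, CM5 chip with amine-coupled anti-human Fc, duplicate antigen dilutions, global 1:1 Langmuir fit, measured after protein A purification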
T1 construct: extracellular domain; analyte of the SPR assays; also called HER2 ECD; ECD2 of HER2

Recombinant human HER2 [2] = biological target: T1, Recombinant human HER2; experiment: SPR, pre-SEC; ratio to WT v10013;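 also: SPR on Biacore T200 at 25 °C, constructs captured via anti-human Fc on CM5 chip, HER2 ECD as analyte, 1:1 Langmuir global fit, after protein A purification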
Description: The affinity towards HER2 ECD of the samples was measured by SPR on a Biacore T200 as follows. Between 2000 and 4000 RU of anti-human Fc injected at concentration between 5 and 10 μg/ml was immobilized on a CM5 chip using standard amine coupling. Antigen-binding constructs were captured on the anti-human Fc (injected at concentration at 0.51 microg/mL in PBST, 1 min at 10 microl/min) at response levels ranging from 120-270 RU. […] HER2 dilutions were analyzed in duplicates. Sensograms were fit globally to a 1: 1 Langmuir binding model, using the software provided with the Biacore T200. All experiments were conducted at 25° C.
The affinity of antigen-binding constructs in OA format was determined by SPR following protein A purification. […] Antigen-binding constructs in FSA format were purified by protein A affinity and SEC prior to assessment of affinity by SPR.

Recombinant human HER2 [3] = biological target: T2, Recombinant human HER2 (human, UniProt P04626 23-652); experiment: SPR, Biacore T200, 25 C; variant captured on anti-human Fc, HER2 flowed;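 also: HER2 extracellular domain analyte run as duplicate dilutions over amine-coupled anti-Fc on a CM5 chip, rates from global sensorgram fitting with a 1:1 Langmuir model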
T2 construct: extracellular domain; Analyte of the SPR assays; also called HER2 ECD; ECD2 of HER2

Kd (Recombinant human HER2 [1]) | Ka, mut/Ka, WT (Recombinant human HER2 [2]) | Kd (Recombinant human HER2 [3]) | koff (Recombinant human HER2 [3]) | kon (Recombinant human HER2 [3]) | Binder
45 nM | 0.4 | – | – | – | variant 12475 (antibody, human IgG1, kappa, one-armed (OA) pertuzumab variant, HC T28R (Kabat); also called v12475) heavy: EVQLVESGGGLVQPGGSLRLSCAASGFRFTDYTMDWVRQAPGKGLEWVADVNPNSGGSIYNQRFKGRFTLSVDRSKNTLYLQMNSLRAEDTAVYYCARNLGPSFYFDYWGQGTLVTVSSASTKGPSVFPLAPSSKSTSGGTAALGCLVKDYFPEPVTVSWNSGALTSGVHTFPAVLQSSGLYSLSSVVTVPSSSLGTQTYICNVNHKPSNTKVDKKVEPKSCDKTHTCPPCPAPELLGGPSVFLFPPKPKDTLMISRTPEVTCVVVDVSHEDPEVKFNWYVDGVEVHNAKTKPREEQYNSTYRVVSVLTVLHQDWLNGKEYKCKVSNKALPAPIEKTISKAKGQPREPQVYVYPPSRDELTKNQVSLTCLVKGFYPSDIAVEWESNGQPENNYKTTPPVLDSDGSFALVSKLTVDKSRWQQGNVFSCSVMHEALHNHYTQKSLSLSPG light: not shown not shown
– | – | 55 nM | 0.0053 s⁻¹ | 97000 M⁻¹ s⁻¹ | Variant 14052 (antibody, human IgG1, kappa, OA (one-armed) format; clones 7852, 8781, 4372; also called v14052) heavy: EVQLVESGGGLVQPGGSLRLSCAASGFTFTDYTMDWVRQAPGKGLEWVADVNPNSGGSIYNQRFKGRFTLSVDRSKNTLYLQMNSLRAEDTAVYYCARNLGPWFYFDYWGQGTLVTVSSASTKGPSVFPLAPSSKSTSGGTAALGCLVKDYFPEPVTVSWNSGALTSGVHTFPAVLQSSGLYSLSSVVTVPSSSLGTQTYICNVNHKPSNTKVDKKVEPKSCDKTHTCPPCPAPELLGGPSVFLFPPKPKDTLMISRTPEVTCVVVDVSHEDPEVKFNWYVDGVEVHNAKTKPREEQYNSTYRVVSVLTVLHQDWLNGKEYKCKVSNKALPAPIEKTISKAKGQPREPQVYVYPPSRDELTKNQVSLTCLVKGFYPSDIAVEWESNGQPENNYKTTPPVLDSDGSFALVSKLTVDKSRWQQGNVFSCSVMHEALHNHYTQKSLSLSPG light: not shown not shown
92 nM | 0.2 | – | – | – | variant 12486 (antibody, human IgG1, kappa, OA pertuzumab variant, HC S54H (Kabat); also called v12486) heavy: EVQLVESGGGLVQPGGSLRLSCAASGFTFTDYTMDWVRQAPGKGLEWVADVNPNHGGSIYNQRFKGRFTLSVDRSKNTLYLQMNSLRAEDTAVYYCARNLGPSFYFDYWGQGTLVTVSSASTKGPSVFPLAPSSKSTSGGTAALGCLVKDYFPEPVTVSWNSGALTSGVHTFPAVLQSSGLYSLSSVVTVPSSSLGTQTYICNVNHKPSNTKVDKKVEPKSCDKTHTCPPCPAPELLGGPSVFLFPPKPKDTLMISRTPEVTCVVVDVSHEDPEVKFNWYVDGVEVHNAKTKPREEQYNSTYRVVSVLTVLHQDWLNGKEYKCKVSNKALPAPIEKTISKAKGQPREPQVYVYPPSRDELTKNQVSLTCLVKGFYPSDIAVEWESNGQPENNYKTTPPVLDSDGSFALVSKLTVDKSRWQQGNVFSCSVMHEALHNHYTQKSLSLSPG light: not shown not shown
310 nM | 0.1 | – | – | – | variant 12481 (antibody, human IgG1, kappa, OA pertuzumab variant, HC T30K (Kabat); also called v12481) heavy: EVQLVESGGGLVQPGGSLRLSCAASGFTFKDYTMDWVRQAPGKGLEWVADVNPNSGGSIYNQRFKGRFTLSVDRSKNTLYLQMNSLRAEDTAVYYCARNLGPSFYFDYWGQGTLVTVSSASTKGPSVFPLAPSSKSTSGGTAALGCLVKDYFPEPVTVSWNSGALTSGVHTFPAVLQSSGLYSLSSVVTVPSSSLGTQTYICNVNHKPSNTKVDKKVEPKSCDKTHTCPPCPAPELLGGPSVFLFPPKPKDTLMISRTPEVTCVVVDVSHEDPEVKFNWYVDGVEVHNAKTKPREEQYNSTYRVVSVLTVLHQDWLNGKEYKCKVSNKALPAPIEKTISKAKGQPREPQVYVYPPSRDELTKNQVSLTCLVKGFYPSDIAVEWESNGQPENNYKTTPPVLDSDGSFALVSKLTVDKSRWQQGNVFSCSVMHEALHNHYTQKSLSLSPG light: not shown not shown
23 nM | 0.9 | – | – | – | variant 12477 (antibody, human IgG1, kappa, OA pertuzumab variant, HC T30R (Kabat); also called v12477) heavy: EVQLVESGGGLVQPGGSLRLSCAASGFTFRDYTMDWVRQAPGKGLEWVADVNPNSGGSIYNQRFKGRFTLSVDRSKNTLYLQMNSLRAEDTAVYYCARNLGPSFYFDYWGQGTLVTVSSASTKGPSVFPLAPSSKSTSGGTAALGCLVKDYFPEPVTVSWNSGALTSGVHTFPAVLQSSGLYSLSSVVTVPSSSLGTQTYICNVNHKPSNTKVDKKVEPKSCDKTHTCPPCPAPELLGGPSVFLFPPKPKDTLMISRTPEVTCVVVDVSHEDPEVKFNWYVDGVEVHNAKTKPREEQYNSTYRVVSVLTVLHQDWLNGKEYKCKVSNKALPAPIEKTISKAKGQPREPQVYVYPPSRDELTKNQVSLTCLVKGFYPSDIAVEWESNGQPENNYKTTPPVLDSDGSFALVSKLTVDKSRWQQGNVFSCSVMHEALHNHYTQKSLSLSPG light: not shown not shown
30 nM | 0.6 | – | – | – | variant 12488 (antibody, human IgG1, kappa, OA pertuzumab variant, HC G56R (Kabat); also called v12488) heavy: EVQLVESGGGLVQPGGSLRLSCAASGFTFTDYTMDWVRQAPGKGLEWVADVNPNSGRSIYNQRFKGRFTLSVDRSKNTLYLQMNSLRAEDTAVYYCARNLGPSFYFDYWGQGTLVTVSSASTKGPSVFPLAPSSKSTSGGTAALGCLVKDYFPEPVTVSWNSGALTSGVHTFPAVLQSSGLYSLSSVVTVPSSSLGTQTYICNVNHKPSNTKVDKKVEPKSCDKTHTCPPCPAPELLGGPSVFLFPPKPKDTLMISRTPEVTCVVVDVSHEDPEVKFNWYVDGVEVHNAKTKPREEQYNSTYRVVSVLTVLHQDWLNGKEYKCKVSNKALPAPIEKTISKAKGQPREPQVYVYPPSRDELTKNQVSLTCLVKGFYPSDIAVEWESNGQPENNYKTTPPVLDSDGSFALVSKLTVDKSRWQQGNVFSCSVMHEALHNHYTQKSLSLSPG light: not shown not shown
61 nM | 0.3 | – | – | – | variant 12476 (antibody, human IgG1, kappa, OA pertuzumab variant, HC T28K (Kabat); also called v12476) heavy: EVQLVESGGGLVQPGGSLRLSCAASGFKFTDYTMDWVRQAPGKGLEWVADVNPNSGGSIYNQRFKGRFTLSVDRSKNTLYLQMNSLRAEDTAVYYCARNLGPSFYFDYWGQGTLVTVSSASTKGPSVFPLAPSSKSTSGGTAALGCLVKDYFPEPVTVSWNSGALTSGVHTFPAVLQSSGLYSLSSVVTVPSSSLGTQTYICNVNHKPSNTKVDKKVEPKSCDKTHTCPPCPAPELLGGPSVFLFPPKPKDTLMISRTPEVTCVVVDVSHEDPEVKFNWYVDGVEVHNAKTKPREEQYNSTYRVVSVLTVLHQDWLNGKEYKCKVSNKALPAPIEKTISKAKGQPREPQVYVYPPSRDELTKNQVSLTCLVKGFYPSDIAVEWESNGQPENNYKTTPPVLDSDGSFALVSKLTVDKSRWQQGNVFSCSVMHEALHNHYTQKSLSLSPG light: not shown not shown
17 nM | 1.1 | – | – | – | variant 12492 (antibody, human IgG1, kappa, OA pertuzumab variant, HC G56W (Kabat); also called v12492) heavy: EVQLVESGGGLVQPGGSLRLSCAASGFTFTDYTMDWVRQAPGKGLEWVADVNPNSGWSIYNQRFKGRFTLSVDRSKNTLYLQMNSLRAEDTAVYYCARNLGPSFYFDYWGQGTLVTVSSASTKGPSVFPLAPSSKSTSGGTAALGCLVKDYFPEPVTVSWNSGALTSGVHTFPAVLQSSGLYSLSSVVTVPSSSLGTQTYICNVNHKPSNTKVDKKVEPKSCDKTHTCPPCPAPELLGGPSVFLFPPKPKDTLMISRTPEVTCVVVDVSHEDPEVKFNWYVDGVEVHNAKTKPREEQYNSTYRVVSVLTVLHQDWLNGKEYKCKVSNKALPAPIEKTISKAKGQPREPQVYVYPPSRDELTKNQVSLTCLVKGFYPSDIAVEWESNGQPENNYKTTPPVLDSDGSFALVSKLTVDKSRWQQGNVFSCSVMHEALHNHYTQKSLSLSPG light: not shown not shown
44 nM | 0.4 | – | – | – | variant 12487 (antibody, human IgG1, kappa, OA pertuzumab variant, HC G56K (Kabat); also called v12487) heavy: EVQLVESGGGLVQPGGSLRLSCAASGFTFTDYTMDWVRQAPGKGLEWVADVNPNSGKSIYNQRFKGRFTLSVDRSKNTLYLQMNSLRAEDTAVYYCARNLGPSFYFDYWGQGTLVTVSSASTKGPSVFPLAPSSKSTSGGTAALGCLVKDYFPEPVTVSWNSGALTSGVHTFPAVLQSSGLYSLSSVVTVPSSSLGTQTYICNVNHKPSNTKVDKKVEPKSCDKTHTCPPCPAPELLGGPSVFLFPPKPKDTLMISRTPEVTCVVVDVSHEDPEVKFNWYVDGVEVHNAKTKPREEQYNSTYRVVSVLTVLHQDWLNGKEYKCKVSNKALPAPIEKTISKAKGQPREPQVYVYPPSRDELTKNQVSLTCLVKGFYPSDIAVEWESNGQPENNYKTTPPVLDSDGSFALVSKLTVDKSRWQQGNVFSCSVMHEALHNHYTQKSLSLSPG light: not shown not shown
50 nM | 0.4 | – | – | – | variant 12495 (antibody, human IgG1, kappa, OA pertuzumab variant, HC I58F (Kabat); also called v12495) heavy: EVQLVESGGGLVQPGGSLRLSCAASGFTFTDYTMDWVRQAPGKGLEWVADVNPNSGGSFYNQRFKGRFTLSVDRSKNTLYLQMNSLRAEDTAVYYCARNLGPSFYFDYWGQGTLVTVSSASTKGPSVFPLAPSSKSTSGGTAALGCLVKDYFPEPVTVSWNSGALTSGVHTFPAVLQSSGLYSLSSVVTVPSSSLGTQTYICNVNHKPSNTKVDKKVEPKSCDKTHTCPPCPAPELLGGPSVFLFPPKPKDTLMISRTPEVTCVVVDVSHEDPEVKFNWYVDGVEVHNAKTKPREEQYNSTYRVVSVLTVLHQDWLNGKEYKCKVSNKALPAPIEKTISKAKGQPREPQVYVYPPSRDELTKNQVSLTCLVKGFYPSDIAVEWESNGQPENNYKTTPPVLDSDGSFALVSKLTVDKSRWQQGNVFSCSVMHEALHNHYTQKSLSLSPG light: not shown not shown
66 nM | 0.3 | – | – | – | variant 12496 (antibody, human IgG1, kappa, OA pertuzumab variant, HC I58Y (Kabat); also called v12496) heavy: EVQLVESGGGLVQPGGSLRLSCAASGFTFTDYTMDWVRQAPGKGLEWVADVNPNSGGSYYNQRFKGRFTLSVDRSKNTLYLQMNSLRAEDTAVYYCARNLGPSFYFDYWGQGTLVTVSSASTKGPSVFPLAPSSKSTSGGTAALGCLVKDYFPEPVTVSWNSGALTSGVHTFPAVLQSSGLYSLSSVVTVPSSSLGTQTYICNVNHKPSNTKVDKKVEPKSCDKTHTCPPCPAPELLGGPSVFLFPPKPKDTLMISRTPEVTCVVVDVSHEDPEVKFNWYVDGVEVHNAKTKPREEQYNSTYRVVSVLTVLHQDWLNGKEYKCKVSNKALPAPIEKTISKAKGQPREPQVYVYPPSRDELTKNQVSLTCLVKGFYPSDIAVEWESNGQPENNYKTTPPVLDSDGSFALVSKLTVDKSRWQQGNVFSCSVMHEALHNHYTQKSLSLSPG light: not shown not shown
19 nM | 1 | – | – | – | variant 12498 (antibody, human IgG1, kappa, OA pertuzumab variant, HC Q61K (Kabat); also called v12498) heavy: EVQLVESGGGLVQPGGSLRLSCAASGFTFTDYTMDWVRQAPGKGLEWVADVNPNSGGSIYNKRFKGRFTLSVDRSKNTLYLQMNSLRAEDTAVYYCARNLGPSFYFDYWGQGTLVTVSSASTKGPSVFPLAPSSKSTSGGTAALGCLVKDYFPEPVTVSWNSGALTSGVHTFPAVLQSSGLYSLSSVVTVPSSSLGTQTYICNVNHKPSNTKVDKKVEPKSCDKTHTCPPCPAPELLGGPSVFLFPPKPKDTLMISRTPEVTCVVVDVSHEDPEVKFNWYVDGVEVHNAKTKPREEQYNSTYRVVSVLTVLHQDWLNGKEYKCKVSNKALPAPIEKTISKAKGQPREPQVYVYPPSRDELTKNQVSLTCLVKGFYPSDIAVEWESNGQPENNYKTTPPVLDSDGSFALVSKLTVDKSRWQQGNVFSCSVMHEALHNHYTQKSLSLSPG light: not shown not shown
